The text below walks through data of the DeepSol protein solubility set.

This data set is described as follows: soluble on expression in E. coli; label from the status in PepcDB or PDB records.
For the sequence “GPLGSPRYELGEELRDKIKQEPSFSNMVSAKKFYNKAIKDFTAPKEGAEVVSVKTHIMRPIDFMLMGLREEFNLYSEDGAHLSAPGTIRLLREKNLLPEEQIARIESVYNQAMSKRFELHAEHKKEHDEMPYSDAKAMLDEVAKIRELGVQRVTRIENLENAKKLWDNANSMLEKGNISGYLKAANELHKFMKEKNLKEDDLRPELSDKTISPKGYAILQSLWGAASDYSRAAATLTESTVEPGLVSAVNKMSAFFMDCKLSPNERATPDPDFKVGKSKILVGIMQFIKDVADPTSKIWMHNTKALMNHKIAAIQKLERSNNVNDETLESVLSSKGENLSEYLSYKYATKDEGREHRYTASTE”, the “soluble on expression in E. coli” value is recorded as “soluble”. For “MGSDKIHHHHHHMLFRASRSDMSNLTNCITNESVAVTADKKPVIGRIHSFESCGTVDGPGIRFITFFQGCLMRCLYCHNRDTWDTHGGKEITVEDLMKEVVTYRHFMNASGGGVTASGGEAILQAEFVRDWFRACKKEGIHTCLDTNGFVRRYDPVIDELLDVTDLVMLDLKQMNDEIHQNLVGVSNHRTLEFAQYLSKKNVKVWIRYVVVPGWSDDDDSAHRLGEFTRDMGNVEKIELLPYHELGKHKWVAMGEEYKLDGVKPPKKETMERVKGILEQYGHKVMY”, the “soluble on expression in E. coli” value was “not soluble”. For “MAGDPNSMKFMSGKFCVLCGKQNVDLIDSLCVDCYVKSKKLIETPKRVTGKYCKICGAQWIRGKWIRTSATSLASVVEDIIARELGSKMRIDKNVDEFAFDIKSIWKDPSGNSFATIEFRGKVRGKSFSQEAVISLEMERELCDSCFRKKTRYYEAIVQLRSKGKIGVDDKKRAFFESFFSTSIVDNISDVIEGREGVDYYFMSKSVARKLVSMISSIVDVEVNESYQNEKMKNGKREAKLVISLRILEHHHHHH” the value was “not soluble”; for “MGSDKIHHHHHHMSPKVFVSHASEDKDRFVLQFAERLRQKGIDAWLDKWEMLPGDSLVDKIFEEGIKEAKAVIVVLSKFSVEKPWVREELNAAFVKRINNGSKLIPIVIDDCEVPEALKSTLWEPIADLSAYDKSFDRIVASIYGANDRPPIGPQPEYVQSFVQAIGNLNNIDSLVLRFSCEEVLKTGNAFVNPERVFLKDDKPILPEDELKDSLEILDGGGYIKLMRTLGGGFFPYQITTYGFDVYANASIPDYQGKIAAVVSAIVNEKLMSNAKIQERLKENKIIVDHILNVLENKGHIKQSKMIGGLSEIFNVSPSLKRALSGG”, “not soluble”. With “MGSDKIHHHHHHMIILDNHFHVDPINGLFLEAVKQFHRAGGTHLVVVYKSAHDYGFGGMKGEDFMRAMDFHVELVEIINKETPVKAYAVVGVHPAEFDYLARARGIEYAKREVMKALEHAQRLCLDGKAIGIGEVGRPHYPVPEEIWEASIEIMKYAMALAKEADCAVQLHTESFDEEKFRELGRYVREVGIKPYRVVKHFSPPLVKVAEEVGIFPSIIASRKNIEEAIKQGTRFLMETDYIDDKRRPGAVLGPKTVPRRTKELLQKGILTEDDVYRIHVENPEKVYGIEL”, the “soluble on expression in E. coli” value is reported as “not soluble”. For “MGSDKIHHHHHHMDQAQIEIQVLSSLSQIAASDWDACACPEAEAGGRPLDPFTTHRFLSALEDSGSVGQGTGWQPQYLTCYLDGQLVACAPLYAKGHSQGEYIFDHNWAHAYERAGGRYYPKLQVAVPFTPATGRRFLVRPGYEEIGISALLQGAVQLASDNQLSSLHVTFCTSDEAEAGREIGLMSRSSQQFHWLNDGYAGFEAFLAALSSRKRKNIRKERKQAQGFGGSIETYTGADLRSEHWDAFWRFYQDTGSRKWGTPYLTRAFFEIIHDTMAEDMALVLAERDGVPVAGALNFIGAKTLYGRYWGCMEHHPCLHFELCYYQAIDLAIEMGLDRVEAGAQGEHKLARGYLPTETHSLHWVADPGFRAAIEQYLEAERAAVGEEIEILTSYGPFKKTHVEEQE”, the “soluble on expression in E. coli” value was “not soluble”. In the case of “MGSDKIHHHHHHMRFTEGLWRLREGVQLFRPEQVYEYSCDGKKLILRSPFRRVEHRGQTLQGPVFEIEISSPFENVIRIRFRHFKGVLEKPPYYEIYQDESFTPDIKETEGSFIFTSGKAKAIIRKNPFGVEFFYEDRFLTKSDLGYAVAPEGRFCLERLHLSVGEMIYGLGERFSAFVKNAQRVVMWNEDAGTISDMTYKNIPFYVSIRKYGVFVNDPGKVDFEIATEHVEKVQFSVKGETLDYFIIAGKDLKEVLERYTLLTGRPELPPAWSFGLWLTTSFTTQYDERTVMEFVDGMRERDIPLHVFHFDCFWMKEFHWVDLEWNRENFPDPEGLLKRLKEKGLKVCVWINPYVSQFSSLFDEGKEKGYFLKKPDGDVWQTDDWQPGMAIIDFTNPEVRKWFASKLERLIDMGVDCFKTDFGEKIPTDVVYYDGSDPEKMHNYYTYLYNKVVFETIERKLGKRNAVVFARSATAGSQKFPVHWGGDCLASYESMAETLRGGLSLALCGFGFWSHDIGGFEDITTPDLYKRWVAFGLLSSHSRLHGNSMYKVPWNFDEEAVEVLRFFTKLKCKLMPYIFASAVEVHERGIPVMRPMILEFPDDPTCLYLDRQYMLGESLLVAPIFSETGEVTYYLPEGVWTHFLTGERVEGGRWRTEKYDYFGLPLFTRPNSIIPTGSVDDRPDYDYADGVTLNVFEISNKTAHVYNTRGEVELSVKVERKGNEIHVEVLKDSRKPWKLLFWNERLEAVEGAETRELEKGTEVVLSFQRAILKTK”, the “soluble on expression in E. coli” value is given as “not soluble”. In the case of “MSKDSNKIIEQSREIGISIIMPLYNVEEVILETLESIHEQTFDSYEVLLIDDGSTDKTIEIVTEYIKDKPRFKLYTQPNGGPASARNHGLRLAIGMYICFVDSDDILPNYSLQLMYDGAISTGAKLITGATKRFNSEGEWFIPMHIQYNIAKPGMKTLLKNPELFYSIGPCAKLYHHSLIDGVFFPENIRYGEDQPFVLHALLQAKDIYTVEKVVYYYRLRDGESQSLTQSVDKDPIRILKSVFQIFDYGEEELKKNNTDYEVALKYYQRVSSVELWGALRAAIESKKSENQKIAFTMTLDWLKTKSDDFLNIIPSFRYFLLFSSIERVRYITKDNKENYRNLIGYLWSRQGEEAKIAFRKTYPIPMKAALQIIENNNWRDARKISFKFIVRRKFKAPILIRKISRGIIFRIATLMPRKKNQVILATERSTTLEGNLLAIYDYMFYNNMPQKVYVFLRKNRNWFEMFQLYYTLGRTKTIVLDDYYNKIYGLKFNKNTHVVQSWHATGAFKKFGFSALEGTDANTEEFETRAHSPYTDVLVSSEGIIPEYMEAFRKQANQIKPIGVPRTDVFFDDEYVNYTKEKYMKMYPQLRDKKILLYAPTFRGGPNERFNYSVVLDIAALKKELGDTHILILKFHPVIKNVSFNVEEDDPFILNLTLNNDINDLMLFSDALITDYSSVIFEFSLMNKPIYFFAYDIDDYLDERGFYFDYKATIPGEVFRDTPSLIEAVKSGLYNYDELEIFKKKFVGSLDGNSTKRFVETYIGKANEKVKDILEHHHHHH”, the “soluble on expression in E. coli” value was “soluble”. The same measure for “MTDNTRLRIAMQKSGRLSDDSRELLARCGIKINLHTQRLIAMAENMPIDILRVRDDDIPGLVMDGVVDLGIIGENVLEEELLNRRAQGEDPRYFTLRRLDFGGCRLSLATPVDEAWDGPLSLNGKRIATSYPHLLKRYLDQKGISFKSCLLNGSVEVAPRAGLADAICDLVSTGATLEANGLREVEVIYRSKACLIQRDGEMEESKQQLIDKLLTRIQGVIQARESKYIMMHAPTERLDEVIALLPGAERPTILPLAGDQQRVAMHMVSSETLFWETMEKLKALGASSILVLPIEKMME”: “soluble”. In the case of “MNAGSDPVVIVSAARTIIGSFNGALAAVPVQDLGSTVIKEVLKRATVAPEDVSEVIFGHVLAAGCGQNPVRQASVGAGIPYSVPAWSCQMICGSGLKAVCLAVQSIGIGDSSIVVAGGMENMSKAPHLAYLRTGVKIGEMPLTDSILCDGLTDAFHNCHMGITAENVAKKWQVSREDQDKVAVLSQNRTENAQKAGHFDKEIVPVLVSTRRGLIEVKTDEFPRHGSNIEAMSKLKPYFLTDGTGTVTPANASGINDGAAAVVLMKKSEADKRGLTPLARIVSWSQVGVEPSIMGIGPIPAIKQAVTKAGWSLEDVDIFEINEAFAAVSAAIVKELGLNPEKVNIEGGAIALGHPLGASGCRILVTLLHTLERMGRSRGVAALCIGGGMGIAMCVQRE”, the “soluble on expression in E. coli” value is “soluble”. For the sequence “MKPLTDTDYIHALIAEGEHQQQDFKFEISDTRKIAKTLSAFANTDGGRLLIGVKDNGKIAGVRSDEEKYMIEAAAQLYCWPEVDYSMQTFHVEGRSVLVVQIDESEHKPVFAKDENGKSLAYIRIKDENILATPVHLRVWQQSGSPAGELIRYTEREQLLLDLLEENTSLSLNRYCRQAGISRRAAEHLLAKFIRFDIVEPIFENHKFYFRLKLEHHHHHH”, the “soluble on expression in E. coli” value is “soluble”. The same measure for “MKKRILAVAVTSMLLSASVFAQETVVPSRVGDLKFESDFPTQETMKNMLNEMDFQRATQAYLWGIPASSIMEWLNVSRNDFKFEEGQMGFFNTLKQKQGIITANFTTPYVIGTWNLEKTGPLIINLPEAKMAGMMLDVHQRVLSDLSLLGPDKGKGGKYLIVPPGEKYKDLNPKGYYVIRPKTNVVYGGIRILEPDVDRVVKQVVPNITTQPYADGKLGRKIPVAQVPEIDWTHIPKDGLEYWKTIHQIIQENPVEERDRFVMAQLKFLGIEKGKPFNPTEEQKKILLEASKVGRAMAQSNDYTKRFTQPYWKGTNWKDAISVSLDQRSENYDELDERAAWFYEAITVSRGMKSTIPGFGQRYLVTYQDSDGNWLSGEHTYKLHVPANVPASNFWSTTVYDENNRLMIINDAGSPDISSRKNLKVNSDGSIDVYYGPKPVKGYENNWVQTNPGEGWFTYFRFYGPTEKMFDKSWTMGDIELVKLEHHHHHH”: “soluble”. For “MTVGGMQPVSIMGKHLNNFERLSILEDYLSGSDSKVAIEQKYGLSHGLIRSWLSKFGLEDKVHPVPMKVSQSPQSELPLNEKEELEQLRKENRVLKSRLKREELGHQAYKLLVELAEETYGIQIRKNSEAK” the value was “not soluble”; for “MDWEKVGLKMGLEIHQQLDTESKLFCPCRTELTDSEPDHDIVRNLRPTQSELGKFDRAAFEEAMRKLHFHYENYHEETCLVEADEEPPHPLNPEALEIAVTIALLLNMRVVDEFHTMRKQVIDGSNTGGFQRTGLVATDGHLETPQGTVKIENLCLEEDAARRIRETGDGVVFRLDRLGIPLVEITTDPSMSDPQQLREVAYQIGQILRSTRVKRGLGTIRQDLNISIRDGARVEVKGVQDLDLIPEIVEREVKRQLSLVEIRDTLQERGAVVEDKIFDVSEVFADTESRIISSAESVLAVKLRGFDGLIGVEIQPGRRLGTEMADYAKKRGVSGIFHTDELPAYGITEEEVRGLRDAVGASQGDAVVMVAHERVTAENALREVIRRAEMAIQGVPEETRKALPDGNTQYLRPLPTSSRMYLETDIPLFRIEDDLLEGIRRNLPELPSEKKERIMRDYGLSEDLASQLVKRNLVDEFEALTEFRVDTTVIASLLAYTLRELRREGHDVDGLGLDELRDAIKLLEVGKISKDALRDIVACMADEGLAAEDAARKLNLLLLAEDEIESIIQEIVEGNLDMISERGMGAMGPLMGQAMGRLRGRADGKVVNRILREKIQERL”, “soluble”. Regarding “MLNEKQAKHIATAIENGNYRSKRQAIVDTTNFWSVSVPIFYQFDTKLSATNIANVRKAIQFWNDNSCLSFKEDNNAKNRLFLSSAGGCWSYVGKQVDMPYQMVSVGPNCDTFGTATHELMHAIGFWHQQSRADRDNYVYVDFSNIIPSQAYNFQKMAVDQAQLLNLPYDYGSVMQYYPYAFAVDSSKYTILAKENGFQNSMGQREAPAFSDIIGVNKLYNCTSQCKIQMKCSNCGITDSRNCNQCKCPRYFTGASCDSLPSGTAPNCNGAVLQATSSWETFDAKAGDPSSFSSSTDNSTNCYWHIKAPEGQQIEFKMTKTPLAAICMQECPWQSIEVNLGKFDLFGMITCCDTILNQVFTSELNMIALRGIIRYNQLTFSIQYRAVPSSKPASTNACLNQ”, the “soluble on expression in E. coli” value is listed as “not soluble”.
